B1: Toc34 (natural protein)
chain: MAQPPRPAEEYDDDVQEDEDELKEGELDDDESHEAASEGGEAAAGDEEAEDDEQDEEDGDEDSQPWAGLNRLPERDDMLDILNELRAEGRKQLTVLLLGKSSVGKSSLINSLLGEAVVRVQAFKLQADTDITTTVVRQVAVGNSEVDGFRLKLIDTCGLEDPEAGDTVNLGALSKIAEDVRGVGIDVVLYCDRLDLYRVDPLDKAIIDAISSTFGRGIWRRTVVALTHANLVQTPPGTDYDSFVNGRVRLIRGAVRGPLFFRPSLPVALVENSETCPVSSESGFRVLPDGEPWLVALVSQLVDMAAARRRPYKYHPRLSSKPSHRFRWLLPVAIAAEVLFYRRFLHPRLDDNQRRVEREEERVWALRGQQRRALGLHRPHRPDKDAAWRLEQMYDDD

Assays:
[1] = target: Toc90 (Chlamydomonas reinhardtii); test: cryo-EM structure
[2] = target: Toc75 (Chlamydomonas reinhardtii); test: cryo-EM structure

| Molecule | stoichiometry N [1] | stoichiometry N [2] |
| --- | --- | --- |
| Toc75 (natural protein) | 1 |  |
| B1 |  | 1 |
